What was measured:
untagged LaminB1 = target: T1, untagged LaminB1 (human, UniProt P20700 1-586); experiment: pull-down; amylose-MBP matrix alone or coupled with MBP-Jacob proteins, washed in 20 mM Tris pH 7.5, 1 mM DTT, 3 mM EDTA, 100 mM NaCl, 0.3% TritonX-100; incubated with 20 μg of untagged LaminB1 or untagged CRM1 overnight at 4 °C; Western blot; conditions: both partners purified
T1 construct: Lamin B1, human, subcloned from mTagRFP-hLaminB1 into the Intein-pMXB10 vector between NdeI and XhoI; Cloning through the XhoI site may leave a few vector residues at the C-terminus after the intein is cut off (surmise); also called recombinant LaminB1; LaminB1(PMXB10); source: E. coli SHuffle (C3026), purified (chitin resin, released with 50 mM DTT)
T1 sequence (looked up): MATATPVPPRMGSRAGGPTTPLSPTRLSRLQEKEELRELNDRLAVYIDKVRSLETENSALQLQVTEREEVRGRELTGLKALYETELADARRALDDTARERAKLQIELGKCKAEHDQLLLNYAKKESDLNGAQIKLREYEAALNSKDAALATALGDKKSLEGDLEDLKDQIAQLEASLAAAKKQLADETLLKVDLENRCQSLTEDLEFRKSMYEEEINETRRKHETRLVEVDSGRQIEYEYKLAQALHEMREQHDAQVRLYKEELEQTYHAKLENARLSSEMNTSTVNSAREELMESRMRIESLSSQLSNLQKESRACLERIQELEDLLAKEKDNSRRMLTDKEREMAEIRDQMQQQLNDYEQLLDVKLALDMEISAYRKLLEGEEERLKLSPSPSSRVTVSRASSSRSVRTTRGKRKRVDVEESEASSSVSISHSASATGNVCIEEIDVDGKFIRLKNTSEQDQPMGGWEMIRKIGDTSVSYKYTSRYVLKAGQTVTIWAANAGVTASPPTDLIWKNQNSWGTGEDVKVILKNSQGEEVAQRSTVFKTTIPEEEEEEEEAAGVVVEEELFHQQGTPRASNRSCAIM

untagged-CRM1 = target: T2, untagged-CRM1 (human, UniProt O14980 1-1071); experiment: as above; conditions: both partners purified
T2 construct: CRM1 (Exportin 1), human, subcloned from 3xFLAG-hCRM1 into the Intein-pMXB10 vector between NdeI and XhoI; Cloning through the XhoI site may leave a few vector residues at the C-terminus after the intein is cut off (surmise); also called recombinant CRM1; CRM1 (PMXB10); source: E. coli ExpressLysY/Iq, purified (chitin resin, released with 50 mM DTT)
T2 sequence (O14980 whole entry): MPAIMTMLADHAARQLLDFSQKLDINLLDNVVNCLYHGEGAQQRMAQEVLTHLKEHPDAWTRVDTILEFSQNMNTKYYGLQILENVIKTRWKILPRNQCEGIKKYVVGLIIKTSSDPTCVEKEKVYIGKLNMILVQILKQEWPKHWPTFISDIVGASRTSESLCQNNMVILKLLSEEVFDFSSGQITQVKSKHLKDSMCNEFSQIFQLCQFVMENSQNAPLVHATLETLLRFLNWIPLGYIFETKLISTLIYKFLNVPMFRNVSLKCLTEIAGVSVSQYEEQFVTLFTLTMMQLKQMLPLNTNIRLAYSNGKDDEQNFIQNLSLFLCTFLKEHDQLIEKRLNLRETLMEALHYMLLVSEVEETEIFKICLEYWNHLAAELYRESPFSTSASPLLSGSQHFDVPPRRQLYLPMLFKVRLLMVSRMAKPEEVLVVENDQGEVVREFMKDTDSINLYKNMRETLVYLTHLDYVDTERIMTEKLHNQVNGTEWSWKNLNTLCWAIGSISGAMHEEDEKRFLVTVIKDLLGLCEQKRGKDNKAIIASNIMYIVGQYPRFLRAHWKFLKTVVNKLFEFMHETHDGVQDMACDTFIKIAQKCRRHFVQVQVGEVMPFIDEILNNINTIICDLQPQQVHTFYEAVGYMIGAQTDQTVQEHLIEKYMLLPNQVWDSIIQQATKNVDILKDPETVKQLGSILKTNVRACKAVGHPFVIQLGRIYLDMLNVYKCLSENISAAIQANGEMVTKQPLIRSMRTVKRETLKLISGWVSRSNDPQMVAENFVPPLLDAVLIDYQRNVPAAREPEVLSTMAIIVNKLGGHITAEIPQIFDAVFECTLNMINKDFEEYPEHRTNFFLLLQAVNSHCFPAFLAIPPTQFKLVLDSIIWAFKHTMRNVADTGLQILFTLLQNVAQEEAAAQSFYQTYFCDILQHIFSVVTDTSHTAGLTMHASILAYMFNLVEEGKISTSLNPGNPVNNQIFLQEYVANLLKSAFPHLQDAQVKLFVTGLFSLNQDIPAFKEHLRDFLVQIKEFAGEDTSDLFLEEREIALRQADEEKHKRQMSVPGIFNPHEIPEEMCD

B1: MBP-45-532-Jacob (domain or fragment, rat, UniProt Q9EPI6 45-532, looked up)
chain: DHLLADAYSGHEGSPEMQPAPHNKRRLSLVSNGRYEGSISDEAVSGKTATEGPQPRVYTISREPALLPGSEAEAIELAVVKGRRQRERHPHHHSQPLRASPGSSREDISRPCQSWAGSRQGSKECPGCAKLVPGPSPRAFGLEQPPLPEASGRHKKLERMYSVDGVSDDVPIRTWFPKENPFSFQTATTTMQAISVFRGYAERKRRKRENDSASVIQRNFRKHLRMVGSRRVKAQTFAERRERSFSRSWSDPTPMKADTSHDSRDSSDLQSSHCTLDEACEDLDWDTEKGLEATACDTEGFLPPKVMLISSKVPKAEYIPTIIRRDDPSIIPILYDHEHATFEDILEEIEKKLNIYHKGAKIWKMLIFCQGGPGHLYLLKNKVATFAKVEKEEDMIHFWKRLSRLMSKVNPEPNVIHIMGCYILGNPNGEKLFQNLRTLMTPYKVTFESPLELSAQGKQMIETYFDFRLYRLWKSRQHSKLLDFDDVL
notes: Jacob (Nsmf), residues 45-532, truncated for protein stability; also called amylose-MBP-45-532-Jacob; Jacob fused to MBP; source: E. coli SHuffle (C3026), pMAL vector, coupled to amylose resin
- binding result (untagged LaminB1): binds
- binding result (untagged-CRM1): binds

Reference: PMC7802242, “The nuclear lamina is a hub for the nuclear function of Jacob” (Molecular Brain, 2021)
